From patent US20160272693A1 (ZEALAND PHARMA A S, published 2016) come the findings set out here.

The experiment concerns the target T1, human amylin receptor 3 (hAMYR3), hCTR2 co-expressed with human receptor activity modifying protein 3 (hRAMP3) (human, UniProt P30988 25-474; O60896 24-148).
T1 sequence (looked up) 1: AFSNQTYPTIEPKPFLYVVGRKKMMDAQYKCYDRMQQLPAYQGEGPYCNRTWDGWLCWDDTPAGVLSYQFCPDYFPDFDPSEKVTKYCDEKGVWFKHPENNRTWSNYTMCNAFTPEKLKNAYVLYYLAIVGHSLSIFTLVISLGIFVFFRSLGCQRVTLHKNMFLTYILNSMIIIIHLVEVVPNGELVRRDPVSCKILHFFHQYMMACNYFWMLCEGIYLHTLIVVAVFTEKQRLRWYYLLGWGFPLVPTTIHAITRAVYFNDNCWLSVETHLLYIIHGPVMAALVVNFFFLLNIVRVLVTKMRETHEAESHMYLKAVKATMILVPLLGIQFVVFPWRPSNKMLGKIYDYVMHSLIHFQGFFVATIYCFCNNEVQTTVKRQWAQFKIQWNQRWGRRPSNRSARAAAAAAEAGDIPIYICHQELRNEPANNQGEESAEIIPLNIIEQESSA
T1 sequence (looked up) 2: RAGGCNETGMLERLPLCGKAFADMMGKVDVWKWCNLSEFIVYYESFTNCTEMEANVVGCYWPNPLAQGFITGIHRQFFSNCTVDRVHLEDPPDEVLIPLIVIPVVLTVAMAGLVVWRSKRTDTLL
Kind of experiment: cell-based or functional assay.

*1 amine or outer side, *2 acyl side, *3 side chain or, on linkers, in order; H or OH if unused. Bridges are numbered along the chain shown (N, C = ends). [ ]: non-standard residue; d: D form. The star is where a group is joined. C20 diacid = O=C(O)CCCCCCCCCCCCCCCCCCC(=O)*; γGlu = O=C(O)[C@H](CCC(=O)[*:2])N[*:1]; Hyp = O=C(O)[C@@H]1C[C@@H](O)CN1; NMeI = CC[C@H](C)[C@H](NC)C(=O)O; Aad = N[C@@H](CCCC(=O)O)C(=O)O; Orn = NCCC[C@H](N)C(=O)O; Sar = CNCC(=O)O

B1: [19CD]-isoGlu-R-C( )-GTAT-C( )-ATERLAHFLQRSSF-Gly(Me)-A-Ile(Me)-LSSTEVGSGT-Hyp-NH2 (Compd. 52) (peptide)
peptide: {C20 diacid}-[γGlu]RCGTATCATERLAHFLQRSSF[Sar]A[NMeI]LSSTEVGSGT[Hyp]-NH2
modifications: disulfide 3-8
SMILES: CC[C@H](C)[C@@H](C(=O)N[C@@H](CC(C)C)C(=O)N[C@@H](CO)C(=O)N[C@@H](CO)C(=O)N[C@H](C(=O)N[C@@H](CCC(=O)O)C(=O)N[C@H](C(=O)NCC(=O)N[C@@H](CO)C(=O)NCC(=O)N[C@H](C(=O)N1C[C@H](O)C[C@H]1C(N)=O)[C@@H](C)O)C(C)C)[C@@H](C)O)N(C)C(=O)[C@H](C)NC(=O)CN(C)C(=O)[C@H](Cc1ccccc1)NC(=O)[C@H](CO)NC(=O)[C@H](CO)NC(=O)[C@H](CCCNC(=N)N)NC(=O)[C@H](CCC(N)=O)NC(=O)[C@H](CC(C)C)NC(=O)[C@H](Cc1ccccc1)NC(=O)[C@H](Cc1c[nH]cn1)NC(=O)[C@H](C)NC(=O)[C@H](CC(C)C)NC(=O)[C@H](CCCNC(=N)N)NC(=O)[C@H](CCC(=O)O)NC(=O)[C@@H](NC(=O)[C@H](C)NC(=O)[C@@H]1CSSC[C@H](NC(=O)[C@H](CCCNC(=N)N)NC(=O)CC[C@H](NC(=O)CCCCCCCCCCCCCCCCCCC(=O)O)C(=O)O)C(=O)NCC(=O)N[C@@H]([C@@H](C)O)C(=O)N[C@@H](C)C(=O)N[C@@H]([C@@H](C)O)C(=O)N1)[C@@H](C)O
As for B1, the “hAMYR3 EC50 (nM); cAMP induction” value came to 0.09 nM.

B2: [19CD]-isoGlu-R-C( )-NTAT-C( )-ATQRLAHFL-Aad-RSSF-Gly(Me)-A-Ile(Me)-LSSTEVGSNT-Hyp-NH2 (Compd. 50) (peptide)
peptide: {C20 diacid-γGlu}-RCNTATCATQRLAHFL[Aad]RSSF[Sar]A[NMeI]LSSTEVGSNT[Hyp]-NH2
modifications: disulfide 2-7
SMILES: CC[C@H](C)[C@@H](C(=O)N[C@@H](CC(C)C)C(=O)N[C@@H](CO)C(=O)N[C@@H](CO)C(=O)N[C@H](C(=O)N[C@@H](CCC(=O)O)C(=O)N[C@H](C(=O)NCC(=O)N[C@@H](CO)C(=O)N[C@@H](CC(N)=O)C(=O)N[C@H](C(=O)N1C[C@H](O)C[C@H]1C(N)=O)[C@@H](C)O)C(C)C)[C@@H](C)O)N(C)C(=O)[C@H](C)NC(=O)CN(C)C(=O)[C@H](Cc1ccccc1)NC(=O)[C@H](CO)NC(=O)[C@H](CO)NC(=O)[C@H](CCCNC(=N)N)NC(=O)[C@H](CCCC(=O)O)NC(=O)[C@H](CC(C)C)NC(=O)[C@H](Cc1ccccc1)NC(=O)[C@H](Cc1c[nH]cn1)NC(=O)[C@H](C)NC(=O)[C@H](CC(C)C)NC(=O)[C@H](CCCNC(=N)N)NC(=O)[C@H](CCC(N)=O)NC(=O)[C@@H](NC(=O)[C@H](C)NC(=O)[C@@H]1CSSC[C@H](NC(=O)[C@H](CCCNC(=N)N)NC(=O)CC[C@H](NC(=O)CCCCCCCCCCCCCCCCCCC(=O)O)C(=O)O)C(=O)N[C@@H](CC(N)=O)C(=O)N[C@@H]([C@@H](C)O)C(=O)N[C@@H](C)C(=O)N[C@@H]([C@@H](C)O)C(=O)N1)[C@@H](C)O
For the molecule B2, the “hAMYR3 EC50 (nM); cAMP induction” value is 0.19 nM.

With {C20 diacid-γGlu}-RCNTATCATERLAHFLQRSSF[Sar]A[NMeI]LSSTEVGSNT[Hyp]-NH2 (disulfide 2-7) [[19CD]-isoGlu-R-C( )-NTAT-C( )-ATERLAHFLQRSSF-Gly(Me)-A-Ile(Me)-LSSTEVGSNT-Hyp-NH2 (Compd. 56)], the “hAMYR3 EC50 (nM); cAMP induction” value is 0.08 nM.

With {C20 diacid}-[γGlu]RCNTATCATQRLAHFLQRSSF[Sar]A[NMeI]LSSTEVGSNT[Hyp]-NH2 (disulfide 3-8) [[19CD]-isoGlu-R-C( )-NTAT-C( )-ATQRLAHFLQRSSF-Gly(Me)-A-Ile(Me)-LSSTEVGSNT-Hyp-NH2 (Compd. 58)], the “hAMYR3 EC50 (nM); cAMP induction” value was 0.1 nM.

B3: [19CD]-isoGlu-R-C( )-GTAT-C( )-ATERLAHFLQRSSF-Gly(Me)-A-Ile(Me)-LSSTEVGS-Orn-T-Hyp-NH2 (Compd. 51) (peptide)
peptide: {C20 diacid}-[γGlu]RCGTATCATERLAHFLQRSSF[Sar]A[NMeI]LSSTEVGS[Orn]T[Hyp]-NH2
modifications: disulfide 3-8
SMILES: CC[C@H](C)[C@@H](C(=O)N[C@@H](CC(C)C)C(=O)N[C@@H](CO)C(=O)N[C@@H](CO)C(=O)N[C@H](C(=O)N[C@@H](CCC(=O)O)C(=O)N[C@H](C(=O)NCC(=O)N[C@@H](CO)C(=O)N[C@@H](CCCN)C(=O)N[C@H](C(=O)N1C[C@H](O)C[C@H]1C(N)=O)[C@@H](C)O)C(C)C)[C@@H](C)O)N(C)C(=O)[C@H](C)NC(=O)CN(C)C(=O)[C@H](Cc1ccccc1)NC(=O)[C@H](CO)NC(=O)[C@H](CO)NC(=O)[C@H](CCCNC(=N)N)NC(=O)[C@H](CCC(N)=O)NC(=O)[C@H](CC(C)C)NC(=O)[C@H](Cc1ccccc1)NC(=O)[C@H](Cc1c[nH]cn1)NC(=O)[C@H](C)NC(=O)[C@H](CC(C)C)NC(=O)[C@H](CCCNC(=N)N)NC(=O)[C@H](CCC(=O)O)NC(=O)[C@@H](NC(=O)[C@H](C)NC(=O)[C@@H]1CSSC[C@H](NC(=O)[C@H](CCCNC(=N)N)NC(=O)CC[C@H](NC(=O)CCCCCCCCCCCCCCCCCCC(=O)O)C(=O)O)C(=O)NCC(=O)N[C@@H]([C@@H](C)O)C(=O)N[C@@H](C)C(=O)N[C@@H]([C@@H](C)O)C(=O)N1)[C@@H](C)O
As to B3, the “hAMYR3 EC50 (nM); cAMP induction” value was 0.11 nM.

B4: [19CD]-isoGlu-R-C( )-GTAT-C( )-ATERLADFLQRSSF-Gly(Me)-A-Ile(Me)-LSSTEVGSNT-Hyp-NH2 (Compd. 54) (peptide)
peptide: {C20 diacid}-[γGlu]RCGTATCATERLADFLQRSSF[Sar]A[NMeI]LSSTEVGSNT[Hyp]-NH2
modifications: disulfide 3-8
SMILES: CC[C@H](C)[C@@H](C(=O)N[C@@H](CC(C)C)C(=O)N[C@@H](CO)C(=O)N[C@@H](CO)C(=O)N[C@H](C(=O)N[C@@H](CCC(=O)O)C(=O)N[C@H](C(=O)NCC(=O)N[C@@H](CO)C(=O)N[C@@H](CC(N)=O)C(=O)N[C@H](C(=O)N1C[C@H](O)C[C@H]1C(N)=O)[C@@H](C)O)C(C)C)[C@@H](C)O)N(C)C(=O)[C@H](C)NC(=O)CN(C)C(=O)[C@H](Cc1ccccc1)NC(=O)[C@H](CO)NC(=O)[C@H](CO)NC(=O)[C@H](CCCNC(=N)N)NC(=O)[C@H](CCC(N)=O)NC(=O)[C@H](CC(C)C)NC(=O)[C@H](Cc1ccccc1)NC(=O)[C@H](CC(=O)O)NC(=O)[C@H](C)NC(=O)[C@H](CC(C)C)NC(=O)[C@H](CCCNC(=N)N)NC(=O)[C@H](CCC(=O)O)NC(=O)[C@@H](NC(=O)[C@H](C)NC(=O)[C@@H]1CSSC[C@H](NC(=O)[C@H](CCCNC(=N)N)NC(=O)CC[C@H](NC(=O)CCCCCCCCCCCCCCCCCCC(=O)O)C(=O)O)C(=O)NCC(=O)N[C@@H]([C@@H](C)O)C(=O)N[C@@H](C)C(=O)N[C@@H]([C@@H](C)O)C(=O)N1)[C@@H](C)O
Regarding B4, the “hAMYR3 EC50 (nM); cAMP induction” value came to 0.14 nM.

B5: [19CD]-isoGlu-R-C( )-GTAT-C( )-ATERLAHFLQRSSF-Gly(Me)-A-Ile(Me)-LSSTEVGS-Aad-T-Hyp-NH2 (Compd. 53) (peptide)
peptide: {C20 diacid}-[γGlu]RCGTATCATERLAHFLQRSSF[Sar]A[NMeI]LSSTEVGS[Aad]T[Hyp]-NH2
modifications: disulfide 3-8
SMILES: CC[C@H](C)[C@@H](C(=O)N[C@@H](CC(C)C)C(=O)N[C@@H](CO)C(=O)N[C@@H](CO)C(=O)N[C@H](C(=O)N[C@@H](CCC(=O)O)C(=O)N[C@H](C(=O)NCC(=O)N[C@@H](CO)C(=O)N[C@@H](CCCC(=O)O)C(=O)N[C@H](C(=O)N1C[C@H](O)C[C@H]1C(N)=O)[C@@H](C)O)C(C)C)[C@@H](C)O)N(C)C(=O)[C@H](C)NC(=O)CN(C)C(=O)[C@H](Cc1ccccc1)NC(=O)[C@H](CO)NC(=O)[C@H](CO)NC(=O)[C@H](CCCNC(=N)N)NC(=O)[C@H](CCC(N)=O)NC(=O)[C@H](CC(C)C)NC(=O)[C@H](Cc1ccccc1)NC(=O)[C@H](Cc1c[nH]cn1)NC(=O)[C@H](C)NC(=O)[C@H](CC(C)C)NC(=O)[C@H](CCCNC(=N)N)NC(=O)[C@H](CCC(=O)O)NC(=O)[C@@H](NC(=O)[C@H](C)NC(=O)[C@@H]1CSSC[C@H](NC(=O)[C@H](CCCNC(=N)N)NC(=O)CC[C@H](NC(=O)CCCCCCCCCCCCCCCCCCC(=O)O)C(=O)O)C(=O)NCC(=O)N[C@@H]([C@@H](C)O)C(=O)N[C@@H](C)C(=O)N[C@@H]([C@@H](C)O)C(=O)N1)[C@@H](C)O
Regarding B5, the “hAMYR3 EC50 (nM); cAMP induction” value worked out at 0.13 nM.

B6: [19CD]-isoGlu-R-C( )-PTAT-C( )-ATDRLAHFLQRSSF-Gly(Me)-A-Ile(Me)-LSSTDVGSNT-Hyp-NH2 (Compd. 59) (peptide)
peptide: {C20 diacid}-[γGlu]RCPTATCATDRLAHFLQRSSF[Sar]A[NMeI]LSSTDVGSNT[Hyp]-NH2
modifications: disulfide 3-8
SMILES: CC[C@H](C)[C@@H](C(=O)N[C@@H](CC(C)C)C(=O)N[C@@H](CO)C(=O)N[C@@H](CO)C(=O)N[C@H](C(=O)N[C@@H](CC(=O)O)C(=O)N[C@H](C(=O)NCC(=O)N[C@@H](CO)C(=O)N[C@@H](CC(N)=O)C(=O)N[C@H](C(=O)N1C[C@H](O)C[C@H]1C(N)=O)[C@@H](C)O)C(C)C)[C@@H](C)O)N(C)C(=O)[C@H](C)NC(=O)CN(C)C(=O)[C@H](Cc1ccccc1)NC(=O)[C@H](CO)NC(=O)[C@H](CO)NC(=O)[C@H](CCCNC(=N)N)NC(=O)[C@H](CCC(N)=O)NC(=O)[C@H](CC(C)C)NC(=O)[C@H](Cc1ccccc1)NC(=O)[C@H](Cc1c[nH]cn1)NC(=O)[C@H](C)NC(=O)[C@H](CC(C)C)NC(=O)[C@H](CCCNC(=N)N)NC(=O)[C@H](CC(=O)O)NC(=O)[C@@H](NC(=O)[C@H](C)NC(=O)[C@@H]1CSSC[C@H](NC(=O)[C@H](CCCNC(=N)N)NC(=O)CC[C@H](NC(=O)CCCCCCCCCCCCCCCCCCC(=O)O)C(=O)O)C(=O)N2CCC[C@H]2C(=O)N[C@@H]([C@@H](C)O)C(=O)N[C@@H](C)C(=O)N[C@@H]([C@@H](C)O)C(=O)N1)[C@@H](C)O
On to B6, for which the “hAMYR3 EC50 (nM); cAMP induction” value was determined as 0.11 nM.
